B1: 5064 Fab (Fab, V domains shown)
VH: QVQLQQSGPGLVKPSQTLSLTCAISGDSVSSRSASWSWIRQSPGRGLEWLGRIYYRSKWYNDYAVSVKSRITINPDTSKNQFSLQLNSVTPEDTAVYYCARMDVPSFRYFDVWGQGTLVTVSS
VL: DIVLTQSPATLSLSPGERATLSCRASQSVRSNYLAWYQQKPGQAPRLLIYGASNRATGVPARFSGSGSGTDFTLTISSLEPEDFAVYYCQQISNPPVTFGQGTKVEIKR
B2: 5064 Fab-dHLX (other)
VH: B1 VH
VL: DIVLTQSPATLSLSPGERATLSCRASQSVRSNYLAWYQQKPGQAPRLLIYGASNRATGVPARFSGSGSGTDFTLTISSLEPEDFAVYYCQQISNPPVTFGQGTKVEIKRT
B3: 5064 IgG4_Pro (antibody, V domains shown)
VH: B1 VH
VL: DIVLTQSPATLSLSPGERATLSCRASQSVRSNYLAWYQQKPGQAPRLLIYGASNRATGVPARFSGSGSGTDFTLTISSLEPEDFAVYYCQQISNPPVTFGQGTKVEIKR

Tests used:
[1] = target: T1, human NPRA on HEK293 cells bound to ANP (human, UniProt P01160 124-151); experiment: cell-based or functional assay
T1 sequence: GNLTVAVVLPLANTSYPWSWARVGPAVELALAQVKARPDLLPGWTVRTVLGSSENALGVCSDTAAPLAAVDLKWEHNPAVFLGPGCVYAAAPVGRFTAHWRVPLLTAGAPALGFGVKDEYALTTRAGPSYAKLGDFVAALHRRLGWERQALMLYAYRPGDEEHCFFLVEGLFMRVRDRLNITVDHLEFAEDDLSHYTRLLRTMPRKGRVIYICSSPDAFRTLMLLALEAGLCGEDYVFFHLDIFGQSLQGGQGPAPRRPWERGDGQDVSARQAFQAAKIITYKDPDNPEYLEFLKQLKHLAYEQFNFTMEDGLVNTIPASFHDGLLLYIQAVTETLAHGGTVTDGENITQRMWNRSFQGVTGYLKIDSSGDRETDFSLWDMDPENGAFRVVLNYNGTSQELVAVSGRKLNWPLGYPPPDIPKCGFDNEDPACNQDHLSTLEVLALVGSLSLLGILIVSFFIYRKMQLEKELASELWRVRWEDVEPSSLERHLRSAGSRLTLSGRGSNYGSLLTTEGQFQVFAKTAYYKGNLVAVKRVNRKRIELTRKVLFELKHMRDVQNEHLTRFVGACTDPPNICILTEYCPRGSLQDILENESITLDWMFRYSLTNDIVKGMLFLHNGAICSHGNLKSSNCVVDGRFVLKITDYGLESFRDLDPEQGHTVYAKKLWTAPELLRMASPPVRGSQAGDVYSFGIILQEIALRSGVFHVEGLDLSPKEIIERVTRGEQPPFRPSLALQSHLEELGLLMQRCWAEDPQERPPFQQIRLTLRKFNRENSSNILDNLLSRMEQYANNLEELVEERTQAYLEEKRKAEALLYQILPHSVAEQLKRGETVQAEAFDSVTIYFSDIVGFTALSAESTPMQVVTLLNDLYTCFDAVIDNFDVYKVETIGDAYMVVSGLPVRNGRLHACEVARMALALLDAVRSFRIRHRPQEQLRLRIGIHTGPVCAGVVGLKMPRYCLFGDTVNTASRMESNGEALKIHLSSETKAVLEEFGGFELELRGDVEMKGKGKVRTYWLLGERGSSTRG
T1 sequence (peptide): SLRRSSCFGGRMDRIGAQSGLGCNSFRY

[2] = target: T2, human NPRA on HEK293 cells bound to BNP (human, UniProt P16860 103-134); experiment: cell-based or functional assay
T2 sequence: T1 sequence
T2 sequence (peptide): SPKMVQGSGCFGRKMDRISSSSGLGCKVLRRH

[3] = target: T1, human NPRA on HEK293 cells bound to ANP; experiment: FACS, HEK NPRA cells with ANP
[4] = target: T3, human NPRA on HEK293 cells, without added ligand (human, UniProt P16066 33-1061); experiment: FACS, HEK NPRA cells without ligand
T3 construct: a signal peptide is not delimited; also called HEK NPRA cells; HEK hNPRA cells
T3 sequence: T1 sequence

[5] = target: T1, human NPRA on HEK293 cells bound to ANP; experiment: FACS titration on ANP bound HEK NPRA cells; ANP bound HEK NPRA cells
[6] = target: T2, human NPRA on HEK293 cells bound to BNP; experiment: FACS titration on BNP bound HEK NPRA cells; BNP bound HEK NPRA cells
[7] = target: T4, atrial natriuretic peptide (ANP), free (UniProt P01160 124-151, 125I label in the radioligand assays of Example 10); experiment: FACS competition: Fab pre-incubated with free ANP, then HEK NPRA cells loaded with 100 nM ANP
T4 construct: mature; also called free ANP
T4 peptide (looked up): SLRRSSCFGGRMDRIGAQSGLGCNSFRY

[8] = target: T5, NPRA-Fc fusion protein, without ligand (human); experiment: ELISA on captured NPRA-Fc without ligand
T5 construct: also called NPRA-ECD-Fc; recombinant NPRA-Fc
T5 chain: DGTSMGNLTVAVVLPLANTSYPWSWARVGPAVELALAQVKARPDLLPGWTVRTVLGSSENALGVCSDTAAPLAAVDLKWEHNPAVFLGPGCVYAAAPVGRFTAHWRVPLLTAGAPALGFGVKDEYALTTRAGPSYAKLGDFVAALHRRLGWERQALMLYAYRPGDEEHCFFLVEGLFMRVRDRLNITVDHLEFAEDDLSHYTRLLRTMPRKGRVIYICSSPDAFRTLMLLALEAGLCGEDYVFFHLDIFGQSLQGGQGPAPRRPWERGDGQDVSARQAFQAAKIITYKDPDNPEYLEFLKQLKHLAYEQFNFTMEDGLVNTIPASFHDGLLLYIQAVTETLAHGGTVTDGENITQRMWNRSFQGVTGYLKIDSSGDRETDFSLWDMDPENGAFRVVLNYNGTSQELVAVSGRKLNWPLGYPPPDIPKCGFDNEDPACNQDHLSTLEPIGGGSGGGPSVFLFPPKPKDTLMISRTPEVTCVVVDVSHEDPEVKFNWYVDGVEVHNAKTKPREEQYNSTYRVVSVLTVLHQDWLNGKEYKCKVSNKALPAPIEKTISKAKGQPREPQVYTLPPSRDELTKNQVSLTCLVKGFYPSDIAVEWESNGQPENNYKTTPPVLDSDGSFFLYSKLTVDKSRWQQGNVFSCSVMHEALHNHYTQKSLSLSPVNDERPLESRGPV

biotinylated ANP = target: T6, biotinylated ANP (UniProt P01160 124-151, biotin label (position not given)); experiment: binding to biotinylated ANP on streptavidin, ECL readout (legend: ELISA)
T6 construct: mature; Text: conjugated to Streptavidin beads; also called biotin-labeled ANP
T6 peptide (looked up): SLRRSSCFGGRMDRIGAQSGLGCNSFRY

[9] = target: T1, human NPRA on HEK293 cells bound to ANP; experiment: cell-based or functional assay; remark: listed apart in the source
[10] = target: T1, human NPRA on HEK293 cells bound to ANP; experiment: FACS, HEK NPRA cells loaded with 100 nM ANP
[11] = target: T7, human NPRC on HEK293 cells, without added ligand (human, UniProt P17342 27-541); experiment: FACS, HEK NPRC cells without ligand
T7 construct: whole, on cells; also called HEK NPRC cells; natriuretic peptide receptor C
T7 sequence (looked up): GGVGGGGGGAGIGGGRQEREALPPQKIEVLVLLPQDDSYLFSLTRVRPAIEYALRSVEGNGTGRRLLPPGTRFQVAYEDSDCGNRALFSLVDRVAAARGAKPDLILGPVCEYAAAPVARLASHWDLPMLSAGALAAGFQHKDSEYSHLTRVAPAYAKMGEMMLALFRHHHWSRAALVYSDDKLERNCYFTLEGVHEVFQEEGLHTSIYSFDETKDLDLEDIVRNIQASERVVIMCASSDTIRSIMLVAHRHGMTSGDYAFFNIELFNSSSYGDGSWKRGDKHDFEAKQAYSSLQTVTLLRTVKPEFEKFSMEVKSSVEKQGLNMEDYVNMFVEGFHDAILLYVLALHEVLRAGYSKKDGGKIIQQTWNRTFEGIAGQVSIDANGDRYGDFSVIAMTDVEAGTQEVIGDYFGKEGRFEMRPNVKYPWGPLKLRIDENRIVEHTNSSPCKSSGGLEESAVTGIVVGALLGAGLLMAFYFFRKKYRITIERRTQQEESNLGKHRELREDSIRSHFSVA
Procedure: (§1) HEK NPRA cells are detached with Accutase (PAA Laboratories GmbH, Cat. No. L11-007, Austria), harvested by centrifugation (900 rpm, 4 minutes) and resuspended in FACS buffer (PBS/3% FCS/0.02% NaN3) to a final concentration of 10⁶ cells/ml. 100 μl of the cell suspension is transferred to each well of a 96 round bottom plate (TC Microwell 96U, Nunc). […] Cells are washed in 150 μl of FACS buffer, pelleted and resuspended in 50 μl of the solution containing the primary antibody comprising a BEL extract of Fabs, a diluted BEL extract or purified antibody diluted in FACS buffer and incubated on ice for 30 min. Cells are washed again in FACS buffer and resuspended in 50 μl of FACS buffer containing the secondary antibody (R-Phycoerythrin-conjugated Affipure F(ab′)₂ Fragment Goat Anti-Human IgG, Dianova) and incubated on ice for 45 min. Cells are washed twice with FACS buffer and resuspended in 200 μl of FACS buffer for analysis in the FACS Array (BD Biosciences).

[12] = target: T8, human NPRC on HEK293 cells in the presence of ANP (human, UniProt P17342 27-541; P01160 124-151); experiment: FACS, HEK NPRC cells with 100 nM ANP
T8 construct: whole, on cells;mature; also called HEK NPRC cells + 100 nM ANP
T8 sequence (looked up): T7 sequence (looked up)
T8 sequence (peptide, looked up): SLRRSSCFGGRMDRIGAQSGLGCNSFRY
Procedure: as §1

[13] = target: T9, human NPRC on HEK293 cells in the presence of BNP (human, UniProt P17342 27-541; P16860 103-134); experiment: FACS, HEK NPRC cells with 100 nM BNP
T9 construct: whole, on cells;mature; also called HEK NPRC cells + 100 nM BNP
T9 sequence (looked up): T7 sequence (looked up)
T9 sequence (peptide, looked up): T2 sequence (peptide)
Procedure: as §1

[14] = target: T1, human NPRA on HEK293 cells bound to ANP; experiment: FACS, IgG4_Pro on HEK NPRA cells in the presence of 100 nM ANP
Procedure: as §1

Binder | EC50 of ANP, cGMP production in HEK NPRA cells, with 400 nM Fab [1] | fold decrease of the EC50 of BNP (cGMP, 400 nM Fab) [2] | EC50 (read off the curve) [3] | binding result [4] | EC50 [5] | EC50 [6] | binding result [7] | binding result [8] | binding result (biotinylated ANP) | cGMP EC50 (nM), titration of the antibody on HEK NPRA cells with 200 pM ANP [9] | EC50 [10] | binding result [11] | binding result [12] | binding result [13] | EC50 [14]
B1 | 1 nM | 2 fold | ~100 nM | no binding (tested: 20 µg/ml) | ≥ 100 nM | ≥ 300 nM | no binding (tested: 10000 nM) |  |  |  |  |  |  |  | 
B2 |  |  |  | no binding (tested: 20 µg/ml) |  |  |  | no binding (tested: 20 µg/ml) | no binding (tested: 10 nM) |  |  |  |  |  | 
B3 |  |  |  |  |  |  |  |  |  | 12.1 nM | 1.6 nM | no binding (tested: 20 nM) | no binding (tested: 20 nM) | no binding (tested: 20 nM) | 1.08 nM

— patent US20160168251A1 (MorphoSys, published 2016)
